Laboratory results: patent US20250066503A1, “CELL INJURY INDUCING THERAPEUTIC DRUG FOR USE IN CANCER THERAPY” (CHUGAI SEIYAKU KABUSHIKI KAISHA, priority 2016, published 2025)

System: PC-10 xenograft tumor
Test: In vivo drug efficacy, NOD scid/T cell-injected model, PC-10
Design: species or system NOD scid mice
Conditions: 1 mg/kg once through the tail vein, compared to the vehicle-administered group
Procedure: Methods called an NOD scid/T cell-injected model, a humanized NOG mouse model, and a human CD3εδγ gene-modified mouse model were used in the in vivo drug efficacy evaluation. Assay using an NOD scid/T cell-injected model was performed as follows. […] T cells expanded by culturing human PBMCs in vitro were injected into the NOD scid mice with confirmed tumor establishment. The mice were treated by administering bispecific antibody-38 and bispecific antibody-30, -31, -32, or -33. Assay using a humanized NOG mouse model was performed as follows. CD34-positive hematopoietic stem cells derived from umbilical cord blood were transplanted into NOG mice by tail vein injection. Human T cells are constantly supplied in the mice, which are called humanized NOG mice. The PC-10 cell line was transplanted into humanized NOG mice. The humanized NOG mice with confirmed establishment of PC-10 tumor were treated by administering antibody-38. Assay using a human CD3εδγ gene-modified mouse model was performed as follows. Cells of mouse-derived cell line forced to express human GPC3 were transplanted into a human CD3εδγ gene-modified mouse model, which had been prepared according to Reference Example 10. The human CD3εδγ gene-modified mice with confirmed tumor establishment were treated by administering antibody-38. […]

B1: antibody-39: bispecific antibody; CD3-binding variable region SEQ ID NO: 433, GPC-binding SEQ ID NO: 434, common L chain SEQ ID NO: 435 (antibody)
heavy 1: QVQLVQSGAEVKKPGASVKVSCKASGYTFTDYEMHWIRQPPGQGLEWIGAIDPKTGDTAYSQKFKGRVTLTADKSTSTAYMELSSLTSEDTAVYYCTRFYSYTYWGQGTLVTVSS
heavy 2: EVQLVETGGSLVQPGKSLKLTCATSGFTFSNAWMHWVRQSPEKQLEWVAQIKAKSNNYATYYAESVKGRFTISRDDSKSNIYLQMNSLKEEDTAVYYCRYVHYGAYYGVDAWGQGTSVTVSS
light: DIVMTQSPLSLPVTPGEPASISCRSSQSLVHSNRNTYLHWYQQKPGQAPRLLIYKVSNRFSGVPDRFSGSGSGTDFTLKISRVEAEDVGVYYCGQGTQVPYTFGQGTKLEIK
modifications: An artificially generated sequence
- anti-tumor effect: evident anti-tumor effect
